# Test system: Escherichia coli TOP10
# Experiment: shrunken log2 fold change of peptide-encoding DNA abundance (4.5 h post-induction vs induction); higher = less antimicrobial activity (less host growth inhibition)
# Conditions: time post-induction: 4.5 h; library: site-saturation at positions 5, 18, 19, 20
# 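Note: peptides expressed intracellularly from a pBAD plasmid library in pooled LB shake-flask culture, induced with 0.3% L-arabinose, DNA abundance read by NGS, three biological replicates, DESeq2 with apeglm shrinkage.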
row,Sequence,shrunken log2 fold change
1,RRIRERPPRLPRPRPRPSCKPRP,-0.277
2,RRIRHRPPRLPRPRPRPDYTPRP,-0.00281
3,RRIRCRPPRLPRPRPRPPHDPRP,1.83
4,RRIRHRPPRLPRPRPRPTRMPRP,0.237
5,RRIRGRPPRLPRPRPRPIHNPRP,-0.268
6,RRIRERPPRLPRPRPRPTMMPRP,-0.0968
7,RRIRERPPRLPRPRPRPRFNPRP,-0.453
8,RRIRERPPRLPRPRPRPCLLPRP,-0.0977
9,RRIRHRPPRLPRPRPRPTHWPRP,0.706
10,RRIRMRPPRLPRPRPRPPDIPRP,0.121
11,RRIRKRPPRLPRPRPRPKIGPRP,0.295
12,RRIRERPPRLPRPRPRPGFCPRP,-0.122
13,RRIRFRPPRLPRPRPRPHLEPRP,-0.425
14,RRIRTRPPRLPRPRPRPGMKPRP,-0.0344
15,RRIRARPPRLPRPRPRPGFQPRP,0.092
16,RRIRERPPRLPRPRPRPTMFPRP,-0.724
17,RRIRPRPPRLPRPRPRPRKCPRP,0.0115
18,RRIRRRPPRLPRPRPRPHMEPRP,0.0679
19,RRIRTRPPRLPRPRPRPAETPRP,0.139
20,RRIRPRPPRLPRPRPRPCGNPRP,-0.0502
21,RRIRTRPPRLPRPRPRPCVWPRP,-0.000289
22,RRIRKRPPRLPRPRPRPAYWPRP,0.424

row,Sequence,shrunken log2 fold change
1,RRIRCRPPRLPRPRPRPMHNPRP,-0.293
2,RRIRWRPPRLPRPRPRPMSCPRP,-0.256
3,RRIRCRPPRLPRPRPRPRIAPRP,0.0204
4,RRIRYRPPRLPRPRPRPRKFPRP,-1.72
5,RRIRIRPPRLPRPRPRPSWRPRP,0.144
6,RRIRMRPPRLPRPRPRPYWIPRP,-0.157
7,RRIRHRPPRLPRPRPRPEGLPRP,0.00161
8,RRIRKRPPRLPRPRPRPWKNPRP,-0.00973
9,RRIRIRPPRLPRPRPRPWPLPRP,-0.122
10,RRIRQRPPRLPRPRPRPEACPRP,-0.000521
11,RRIRERPPRLPRPRPRPVSTPRP,-0.199
12,RRIRVRPPRLPRPRPRPDHCPRP,-0.146
13,RRIRCRPPRLPRPRPRPMAVPRP,0.0112
14,RRIRDRPPRLPRPRPRPFCMPRP,0.00343
15,RRIRERPPRLPRPRPRPQPIPRP,0.0322
16,RRIRHRPPRLPRPRPRPAEPPRP,0.19
17,RRIRTRPPRLPRPRPRPNCHPRP,-0.341
18,RRIRDRPPRLPRPRPRPTPNPRP,0.272
19,RRIRKRPPRLPRPRPRPPIIPRP,-0.146
20,RRIRIRPPRLPRPRPRPWPEPRP,-0.162
21,RRIRQRPPRLPRPRPRPDRIPRP,-0.185
22,RRIRDRPPRLPRPRPRPRHFPRP,-0.0107

row,Sequence,shrunken log2 fold change
1,RRIRIRPPRLPRPRPRPQMMPRP,-0.622
2,RRIRARPPRLPRPRPRPVMAPRP,0.567
3,RRIRNRPPRLPRPRPRPDVWPRP,-0.0172
4,RRIRLRPPRLPRPRPRPRWWPRP,0.13
5,RRIRTRPPRLPRPRPRPGRLPRP,0.171
6,RRIRQRPPRLPRPRPRPVWYPRP,-0.254
7,RRIRQRPPRLPRPRPRPWKVPRP,-0.00992
8,RRIRYRPPRLPRPRPRPGYFPRP,-0.624
9,RRIRFRPPRLPRPRPRPLQCPRP,-0.293
10,RRIRPRPPRLPRPRPRPKYNPRP,-0.633
11,RRIRERPPRLPRPRPRPVQGPRP,0.166
12,RRIRQRPPRLPRPRPRPTEGPRP,-0.0332
13,RRIRERPPRLPRPRPRPSVMPRP,-0.175
14,RRIRARPPRLPRPRPRPLEEPRP,1.04
15,RRIRKRPPRLPRPRPRPGNIPRP,-0.0196
16,RRIRYRPPRLPRPRPRPNFCPRP,-0.00468
17,RRIRGRPPRLPRPRPRPKWEPRP,1.13
18,RRIRTRPPRLPRPRPRPLVTPRP,-0.227
19,RRIRTRPPRLPRPRPRPGESPRP,-0.012
20,RRIRERPPRLPRPRPRPSWGPRP,-0.102
21,RRIRVRPPRLPRPRPRPFWMPRP,0.0403
22,RRIRNRPPRLPRPRPRPNYSPRP,-0.364

row,Sequence,shrunken log2 fold change
1,RRIRTRPPRLPRPRPRPFYCPRP,-0.505
2,RRIRMRPPRLPRPRPRPHRLPRP,0.108
3,RRIRWRPPRLPRPRPRPSVQPRP,0.128
4,RRIRVRPPRLPRPRPRPAYFPRP,-0.325
5,RRIRWRPPRLPRPRPRPQIKPRP,-0.21
6,RRIRLRPPRLPRPRPRPPVCPRP,0.124
7,RRIRPRPPRLPRPRPRPWPIPRP,0.054
8,RRIRKRPPRLPRPRPRPDNKPRP,-0.119
9,RRIRLRPPRLPRPRPRPYRLPRP,-0.0305
10,RRIRRRPPRLPRPRPRPDAGPRP,0.307
11,RRIRPRPPRLPRPRPRPLDYPRP,-0.495
12,RRIRLRPPRLPRPRPRPLDSPRP,0.0522
13,RRIRNRPPRLPRPRPRPDFRPRP,-0.0186
14,RRIRTRPPRLPRPRPRPYVTPRP,-0.203
15,RRIRDRPPRLPRPRPRPCWTPRP,0.122
16,RRIRPRPPRLPRPRPRPSWCPRP,0.108
17,RRIRYRPPRLPRPRPRPGCDPRP,-0.282
18,RRIRNRPPRLPRPRPRPCREPRP,-0.109
19,RRIRFRPPRLPRPRPRPDKVPRP,-0.281
20,RRIRERPPRLPRPRPRPPALPRP,0.114
21,RRIRMRPPRLPRPRPRPRGLPRP,0.727
22,RRIRWRPPRLPRPRPRPIHKPRP,-0.0298

row,Sequence,shrunken log2 fold change
1,RRIRQRPPRLPRPRPRPIGGPRP,-0.0328
2,RRIRQRPPRLPRPRPRPFMIPRP,0.0993
3,RRIRRRPPRLPRPRPRPLWFPRP,0.396
4,RRIRDRPPRLPRPRPRPGPTPRP,0.355
5,RRIRDRPPRLPRPRPRPHNVPRP,0.00884
6,RRIRSRPPRLPRPRPRPALQPRP,0.441
7,RRIRWRPPRLPRPRPRPWDIPRP,-0.309
8,RRIRNRPPRLPRPRPRPCHPPRP,-0.0698
9,RRIRARPPRLPRPRPRPCMSPRP,0.19
10,RRIRKRPPRLPRPRPRPAVVPRP,0.0614
11,RRIRLRPPRLPRPRPRPQPYPRP,-0.487
12,RRIRQRPPRLPRPRPRPSMGPRP,-0.163
13,RRIRFRPPRLPRPRPRPAYKPRP,-0.314
14,RRIRDRPPRLPRPRPRPRKQPRP,-0.0319
15,RRIRYRPPRLPRPRPRPQLFPRP,-0.745
16,RRIRERPPRLPRPRPRPDFMPRP,0.0144
17,RRIRSRPPRLPRPRPRPKARPRP,0.0932
18,RRIRSRPPRLPRPRPRPWDTPRP,-0.0299
19,RRIRNRPPRLPRPRPRPAFCPRP,0.0699
20,RRIRERPPRLPRPRPRPCEPPRP,0.123
21,RRIRDRPPRLPRPRPRPPFYPRP,-0.213

# Source: the supplement of paper PMC9112550, “Optimization of the antimicrobial peptide Bac7 by deep mutational scanning” (BMC Biology, 2022)
